# Values of other authors as cited in PMC6832444.
# Target: PD-L2 (Homo sapiens) (UniProt Q9BQ51)
# UniProt Q9BQ51, sequence (Q9BQ51 20-220): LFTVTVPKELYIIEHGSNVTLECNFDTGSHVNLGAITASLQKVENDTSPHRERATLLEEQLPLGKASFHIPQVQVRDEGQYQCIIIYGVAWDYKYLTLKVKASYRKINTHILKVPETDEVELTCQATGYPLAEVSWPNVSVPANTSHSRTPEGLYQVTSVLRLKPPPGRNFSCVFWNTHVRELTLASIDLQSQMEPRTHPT
substance,measurement,value
PD-1 (from UniProt Q15116),Kd,140 nM
